# Reference: patent US20200157212A1 (Pfizer, published 2020)
# Where a chain is given by its changes, count along the chain named.
# T1: Human ROBO2 overexpressed on HEK293 cells (human, UniProt Q9HCK4 22-1378)
# T1 construct: also called ROBO2 cells; native ROBO2
# T1 sequence: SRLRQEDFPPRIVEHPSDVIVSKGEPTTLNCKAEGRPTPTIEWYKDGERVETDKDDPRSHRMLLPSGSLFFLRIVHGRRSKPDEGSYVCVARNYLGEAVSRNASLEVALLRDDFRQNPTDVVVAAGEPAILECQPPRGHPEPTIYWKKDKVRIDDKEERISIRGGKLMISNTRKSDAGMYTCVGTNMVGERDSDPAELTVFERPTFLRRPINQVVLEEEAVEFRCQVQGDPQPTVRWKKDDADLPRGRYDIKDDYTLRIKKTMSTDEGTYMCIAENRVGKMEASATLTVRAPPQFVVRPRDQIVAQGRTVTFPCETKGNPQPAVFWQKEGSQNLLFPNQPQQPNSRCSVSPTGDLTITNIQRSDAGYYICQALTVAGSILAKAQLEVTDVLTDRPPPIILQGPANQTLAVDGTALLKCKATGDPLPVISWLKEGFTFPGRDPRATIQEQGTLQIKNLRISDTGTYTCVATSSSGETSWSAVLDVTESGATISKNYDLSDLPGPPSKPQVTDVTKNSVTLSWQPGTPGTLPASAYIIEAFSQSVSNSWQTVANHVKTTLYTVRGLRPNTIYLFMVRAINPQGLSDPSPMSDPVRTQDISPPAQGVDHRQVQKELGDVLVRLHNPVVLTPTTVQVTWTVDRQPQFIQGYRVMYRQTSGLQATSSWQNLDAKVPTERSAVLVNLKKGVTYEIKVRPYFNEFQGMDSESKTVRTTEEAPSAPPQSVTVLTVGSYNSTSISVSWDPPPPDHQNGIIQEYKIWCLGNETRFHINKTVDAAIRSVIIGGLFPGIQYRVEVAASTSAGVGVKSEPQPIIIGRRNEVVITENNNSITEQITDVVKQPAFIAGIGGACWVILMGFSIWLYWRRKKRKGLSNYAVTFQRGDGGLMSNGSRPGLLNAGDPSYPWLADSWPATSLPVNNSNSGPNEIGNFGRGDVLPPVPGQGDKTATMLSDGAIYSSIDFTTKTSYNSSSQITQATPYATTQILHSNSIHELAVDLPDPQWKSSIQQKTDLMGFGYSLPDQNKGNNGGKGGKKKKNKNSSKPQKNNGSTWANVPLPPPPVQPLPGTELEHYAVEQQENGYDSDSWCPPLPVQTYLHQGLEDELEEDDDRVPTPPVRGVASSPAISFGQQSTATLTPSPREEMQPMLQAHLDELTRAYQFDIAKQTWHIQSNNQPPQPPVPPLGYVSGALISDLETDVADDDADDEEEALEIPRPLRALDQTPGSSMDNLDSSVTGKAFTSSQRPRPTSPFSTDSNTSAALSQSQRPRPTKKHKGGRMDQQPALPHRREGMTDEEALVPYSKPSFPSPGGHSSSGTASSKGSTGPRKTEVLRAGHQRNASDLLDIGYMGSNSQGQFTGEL
# T2: Terbium (Tb) labeled-SNAP tagged ROBO2 expressed on HEK293 cells (Homo sapiens (Human), UniProt Q9HCK4 22-1378, terbium label on the SNAP tag)
# T2 construct: also called Tb-labeled ROBO2 cells; ROBO2 expressing cells; not shown: SNAP tag
# T2 sequence: T1 sequence
# B1: Ab3 (antibody, human IgG1, kappa, V domains shown)
# VH: EVQLVQSGAEVKKPGASVKVSCKASGYTFTGYYMHWVRQAPGQGLEWMGWINPKSGATNFPQKFQGRVTMTRDTSITTAYMDLSRLRSDDTAVYYCARESGDDAFDIWGQGTMVTVSS
# VL: DIVMTQSPSSLSASVGDRVTITCRASQKISSYLNWYQQKPGKAPKLLIYAASSLQSGVPSRFSGSGSGTDFTLTISSLQPEDFATYYCQQSYSTSFGGGTKVEIKR
# notes: full-length human IgG
# B2: Ab58 (antibody, human IgG1, kappa, V domains shown)
# VH: B1 VH with S55D, A57D, N59E
# VL: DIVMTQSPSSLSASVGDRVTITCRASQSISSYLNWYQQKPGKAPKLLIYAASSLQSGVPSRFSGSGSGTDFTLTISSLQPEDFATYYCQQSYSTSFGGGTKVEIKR
# notes: full-length human IgG
# B3: Ab83 (antibody, human IgG1, kappa, V domains shown)
# VH: B1 VH with K54R, S55N, A57I, N59S
# VL: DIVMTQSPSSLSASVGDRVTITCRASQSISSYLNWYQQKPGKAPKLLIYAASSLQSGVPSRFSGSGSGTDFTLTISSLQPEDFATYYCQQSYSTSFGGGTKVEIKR
# notes: full-length human IgG
# B4: Ab22 (antibody, human IgG1, kappa, V domains shown)
# VH: B1 VH with K54R
# VL: B1 VL with K28S, S56Y
# notes: full-length human IgG
# B5: Ab29 (antibody, human IgG1, kappa, V domains shown)
# VH: B1 VH with W50A, N52D, A57T, N59M
# VL: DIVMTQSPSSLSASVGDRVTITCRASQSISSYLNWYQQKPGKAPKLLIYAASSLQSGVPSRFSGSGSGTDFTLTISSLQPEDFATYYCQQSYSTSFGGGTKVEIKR
# notes: full-length human IgG
# B6: Ab40 (antibody, human IgG1, kappa, V domains shown)
# VH: B1 VH with K54N
# VL: B1 VL with K28S, Y92L, S93E, T94L, S95G
# notes: full-length human IgG
# B7: Ab32 (antibody, human IgG1, kappa, V domains shown)
# VH: B1 VH with W50A, N52D, S55L, A57I, N59I
# VL: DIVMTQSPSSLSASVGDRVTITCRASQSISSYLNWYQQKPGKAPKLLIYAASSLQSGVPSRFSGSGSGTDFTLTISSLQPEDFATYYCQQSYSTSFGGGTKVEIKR
# notes: full-length human IgG
# B8: Ab46 (antibody, human IgG1, kappa, V domains shown)
# VH: B1 VH with W50A, N52D, S55H, A57F, N59I
# VL: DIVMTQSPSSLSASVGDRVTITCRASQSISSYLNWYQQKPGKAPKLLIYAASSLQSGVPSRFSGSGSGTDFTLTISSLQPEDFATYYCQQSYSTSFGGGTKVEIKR
# notes: full-length human IgG
# B9: Abcs12 (antibody, human IgG1, kappa, V domains shown)
# VH: B1 VH with K54R, S55N, A57I, N59S
# VL: B1 VL with K28S, Y92L, S93E, T94L, S95G
# notes: chain-shuffled IgG; also called Abes12
# B10: CTIR2-10 (antibody, human IgG1, kappa, V domains shown)
# VH: B1 VH with T30R, Y33A, K54R, A57V, N59E
# VL: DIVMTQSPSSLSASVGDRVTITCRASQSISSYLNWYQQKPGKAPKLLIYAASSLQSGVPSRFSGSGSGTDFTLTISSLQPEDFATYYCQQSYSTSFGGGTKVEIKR
# notes: CDR-shuffled IgG
# B11: Abcs5 (antibody, human IgG1, kappa, V domains shown)
# VH: B1 VH with S55N, A57D, N59E
# VL: B1 VL with K28S, Y92L, S93E, T94L, S95G
# notes: chain-shuffled IgG
# B12: Abcs50 (antibody, human IgG1, kappa, V domains shown)
# VH: B1 VH with S55N, A57D, N59E
# VL: B1 VL with K28S, S56Y
# notes: chain-shuffled IgG
# B13: CTIR2-6 (antibody, human IgG1, kappa, V domains shown)
# VH: B1 VH
# VL: B1 VL with Y92V, S93G, T94L, S95F
# notes: CDR-shuffled IgG
# B14: CTIR2-9 (antibody, human IgG1, kappa, V domains shown)
# VH: B1 VH
# VL: B1 VL with S56Y, Y92V, S93G, T94L, S95F
# notes: CDR-shuffled IgG
# B15: CTIR2-13 (antibody, human IgG1, kappa, V domains shown)
# VH: B1 VH with T30R, Y33A, N52D, K54R, S55T, A57L, N59K
# VL: B1 VL with S56Y
# notes: CDR-shuffled IgG
# Target: T1, Human ROBO2 overexpressed on HEK293 …
# Experiment: flow cytometry, Geo MFI ROBO2/ROBO1 HEK293 cells, 0.1 µg/ml
# Method: (§1) Binding of the antibodies was detected using a secondary fluorochrome conjugated anti-human IgG F(ab′)₂ antibody and samples were analyzed on a Fortessa cytometer (BD Biosciences). The fold ROBO2 selectivity was calculated as the geometric mean fluorescence intensity (Geo MFI) with ROBO2 cells/Geo MFI with ROBO1 cells. A fold change higher than 3 was considered to be ROBO2 specific (Table 2, Fold Selectivity). Some affinity matured clones had increased ROBO1 reactivity, for example Abcs 55, CTI-R2-10 and CTIR2-13.
# (§2) HTRF assays were run with 5 nM d2-labeled SLIT2-N and antibodies were added at 1 nM. […] Antibodies derived from chain (Abcs series) or CDR shuffling (CTIR-2 series) were evaluated in 11-point, 5-fold dilution series with a top concentration of 1500 nM, N.T. = not tested; ^cFold selectivity was calculated as Geometric Mean Fluorescent Intensity (Geo MFI) of ROBO2/Geo MFI of ROBO1 binding. […] Outcomes: results are listed in order of assays listed in the table (left to right), I.A. = Improved Affinity
row,Fold Selectivity for ROBO2/ROBO1,Binder
1,92 fold,B1
2,21.8 fold,B2
3,40.6 fold,B3
4,67.4 fold,B4
5,> 100 fold,B5
6,> 100 fold,B6
7,90.3 fold,B7
8,> 100 fold,B8

# Target: T3, Human ROBO1 RSK mutant overexpressed on HEK293 cells (human, UniProt Q9Y6N7 26-1651)
# T3 construct: K137R and R139K already in the entry; also called ROBO1-RSK cells
# T3 sequence (Q9Y6N7 other isoform, or with tags, fused parts or gaps mutant limits assumed): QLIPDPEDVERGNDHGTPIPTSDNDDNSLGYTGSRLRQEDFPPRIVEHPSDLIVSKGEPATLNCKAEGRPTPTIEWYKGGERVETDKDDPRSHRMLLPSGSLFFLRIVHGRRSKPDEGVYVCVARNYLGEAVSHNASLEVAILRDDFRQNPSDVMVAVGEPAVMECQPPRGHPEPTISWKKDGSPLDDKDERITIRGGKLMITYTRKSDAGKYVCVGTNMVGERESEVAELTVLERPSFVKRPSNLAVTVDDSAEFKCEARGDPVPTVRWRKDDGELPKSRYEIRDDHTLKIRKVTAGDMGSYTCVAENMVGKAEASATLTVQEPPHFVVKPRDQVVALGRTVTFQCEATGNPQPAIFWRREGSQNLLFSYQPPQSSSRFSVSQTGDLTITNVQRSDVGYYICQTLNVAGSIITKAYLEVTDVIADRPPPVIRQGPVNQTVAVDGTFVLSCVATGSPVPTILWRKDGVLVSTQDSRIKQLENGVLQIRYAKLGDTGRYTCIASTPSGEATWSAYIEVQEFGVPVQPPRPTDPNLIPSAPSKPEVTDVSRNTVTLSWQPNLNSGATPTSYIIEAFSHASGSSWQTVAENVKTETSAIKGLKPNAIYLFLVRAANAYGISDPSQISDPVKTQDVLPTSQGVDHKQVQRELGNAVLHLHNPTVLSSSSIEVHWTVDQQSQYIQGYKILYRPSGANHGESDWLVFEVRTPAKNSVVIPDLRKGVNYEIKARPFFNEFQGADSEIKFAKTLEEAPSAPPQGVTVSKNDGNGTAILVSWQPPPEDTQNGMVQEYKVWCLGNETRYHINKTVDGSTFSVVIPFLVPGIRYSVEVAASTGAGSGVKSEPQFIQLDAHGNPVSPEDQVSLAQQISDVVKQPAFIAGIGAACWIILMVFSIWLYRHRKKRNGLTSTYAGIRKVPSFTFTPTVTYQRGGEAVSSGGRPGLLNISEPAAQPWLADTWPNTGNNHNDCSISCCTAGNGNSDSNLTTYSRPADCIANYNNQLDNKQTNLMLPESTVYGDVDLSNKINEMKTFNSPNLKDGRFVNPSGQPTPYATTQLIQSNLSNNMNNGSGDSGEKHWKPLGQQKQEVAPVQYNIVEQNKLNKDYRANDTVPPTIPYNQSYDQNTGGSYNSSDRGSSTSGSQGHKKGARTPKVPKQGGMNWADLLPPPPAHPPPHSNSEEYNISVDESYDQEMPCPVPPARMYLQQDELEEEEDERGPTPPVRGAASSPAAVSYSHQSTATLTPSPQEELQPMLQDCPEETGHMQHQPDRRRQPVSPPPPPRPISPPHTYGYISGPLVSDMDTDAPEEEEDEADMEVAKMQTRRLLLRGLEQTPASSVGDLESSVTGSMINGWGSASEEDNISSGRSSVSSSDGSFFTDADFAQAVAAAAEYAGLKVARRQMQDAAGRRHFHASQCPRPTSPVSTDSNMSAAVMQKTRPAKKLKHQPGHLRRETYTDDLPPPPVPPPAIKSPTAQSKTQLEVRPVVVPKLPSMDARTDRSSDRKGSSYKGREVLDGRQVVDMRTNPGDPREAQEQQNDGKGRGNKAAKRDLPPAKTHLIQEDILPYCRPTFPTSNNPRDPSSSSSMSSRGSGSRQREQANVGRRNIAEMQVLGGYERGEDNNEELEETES
# Experiment: flow cytometry, Geo MFI ROBO1-RSK/ROBO2-KSR HEK293 cells, 2.5 µg/ml
row,Fold Selectivity for RSK/KSR,Binder
1,> 100 fold,B9
2,1.4 fold,B10
3,6.7 fold,B11
4,1.3 fold,B12
5,> 100 fold,B13
6,> 100 fold,B14
7,2.5 fold,B15

# Target: T1, Human ROBO2 overexpressed on HEK293 …
# Experiment: flow cytometry, Geo MFI ROBO2/ROBO1 HEK293 cells, 2.5 µg/ml
# Method: as §1, §2
row,Fold Selectivity for ROBO2/ROBO1,Binder
1,15.7 fold,B9
2,2.3 fold,B10
3,5.1 fold,B11
4,3.9 fold,B12
5,35 fold,B13
6,14.8 fold,B14
7,2.3 fold,B15

# Target: T2, Terbium (Tb) labeled-SNAP tagged ROBO2 …
# Experiment: HTRF competition, competitor d2-SLIT2-N, ROBO2 HEK293 cells
# Method: (§3) Antibodies generated as a result of the affinity maturation campaign were screened by numerous assays for neutralization of SLIT2-N binding, selective binding to ROBO2 over ROBO1, and inhibition of SLIT2-N functional activity (see Table 2). A ROBO2-SLIT2-N homogenous time resolved fluorescence (HTRF) assay was used to identify antibodies that were capable of blocking SLIT2-N binding to ROBO2. In this assay, terbium (Tb) labeled-SNAP tagged ROBO2 expressing HEK293 cells were incubated with 5 nM d2-labeled SLIT-2N in the presence of 1 nM anti-ROBO2 antibodies for 1 hour. After incubation, fluorescence at 665 nm and 620 nm was measured on an Envision multilabel plate reader. […] Maximal signal was defined as the HTRF ratio of Tb-labeled ROBO2 cells with d2-labeled SLIT2-N in the absence of antibody, the minimum signal was defined as the HTRF ratio of Tb-labeled ROBO2 expressing HEK293 cells only. One nanomolar (nM) parental antibody, 93H2, was unable to block the HTRF assay, therefore this concentration was selected to identify clones with a higher affinity than 93H2 (Table 2, HTRF Ratio column). […] Antibodies derived from chain (Abcs series) or CDR shuffling (CTIR-2 series) were evaluated in 11-point, 5-fold dilution series with a top concentration of 1500 nM (Table 2 HTRF IC₅₀).
row,IC50,Binder
1,133 pM,B1
2,282 pM,B2
3,32 pM,B9
4,437 pM,B3
5,40 pM,B10
6,229 pM,B4
7,36 pM,B11
8,51 pM,B12
9,67 pM,B13
10,64 pM,B14
11,55 pM,B15
12,97 pM,B5
13,728 pM,B6
14,234 pM,B7
15,109 pM,B8

# Target: T2, Terbium (Tb) labeled-SNAP tagged ROBO2 …
# Experiment: HTRF, 5 nM d2-SLIT2-N on Tb-SNAP-ROBO2 HEK293 cells, 1 nM antibody
# Method: as §3, with “In” for “Antibodies generated as a result of the affinity maturation campaign were screened by numerous assays for neutralization of SLIT2-N binding, selective binding to ROBO2 over ROBO1, and inhibition of SLIT2-N functional activity (see Table 2). A ROBO2-SLIT2-N homogenous time resolved fluorescence (HTRF) assay was used to identify antibodies that were capable of blocking SLIT2-N binding to ROBO2. In”
# HTRF assays were run with 5 nM d2-labeled SLIT2-N and antibodies were added at 1 nM. […] Antibodies derived from chain (Abcs series) or CDR shuffling (CTIR-2 series) were evaluated in 11-point, 5-fold dilution series with a top concentration of 1500 nM, N.T. = not tested; ^cFold selectivity was calculated as Geometric Mean Fluorescent Intensity (Geo MFI) of ROBO2/Geo MFI of ROBO1 binding.
row,HTRF Ratio,Binder
1,6610,B1
2,5570,B2
3,2910,B9
4,4770,B3
5,3920,B10
6,5730,B4
7,3540,B11
8,2710,B12
9,4160,B13
10,3540,B14
11,3530,B15
12,7730,B5
13,7430,B6
14,6000,B7
15,5710,B8
